Measurements: article PMC10058814, “Identification of a Thermostable Levansucrase from Pseudomonas orientalis That Allows Unique Product Specificity at Different Temperatures” (Polymers, 2023)

Substrate: OC[C@H]1O[C@@](CO)(O[C@H]2O[C@H](CO)[C@@H](O)[C@H](O)[C@H]2O)[C@@H](O)[C@@H]1O
Assay: kinetics of glucose and fructose release; nonlinear Michaelis-Menten fit
Type: biochemical, Celerinatantimonas diazotrophica
Settings: hydrolysis reaction; assay conditions for Cedi-LS not stated separately
Text: kinetics of glucose and fructose release; nonlinear Michaelis-Menten fit on Cedi-LS

B1: Cedi-LS (Celerinatantimonas diazotrophica) (protein)
chain: MTLQDKVMTTAWSRADALKVHADDPTTTQPEVSISFPTMDENLFIWDTLPLRTLDGSIVSVDGWSVIFTLTAIKDPETYKNADGSYDITTDWENRHGRARIYYWYAKDSKNWILGGRVMREGVSPTTREWAGTPILLNDQGDIELYYTCVTPGATIAKVRGKITTTENAVELSEFDHVTELFSADGFYYQTEEQNQFWNFRDPSPFIDPKDGRLYMVFEGNVAGNRGSHEITTTDMGDVPPGYSDVGGARYQAGCIGLAVATDTDGNNWQLLPPLITAVGVNDQTERPHFVFKDGKYYLFTISHKYTYADGLTGPDGVYGFVSDSLFGPYQPLNGSGLVLGNPSSQPFQTYSHCVMPNGLVTSFIDSVPSTSDDDYDGDYRIGGTEAPTVQIKLEGNQTFMVKEFDYGFIPPMKNIVLQ
notes: recombinant levansucrase from the authors' earlier work; construct not described here
Km: 57 ± 2 mM | kcat: 332 ± 22 s⁻¹ | kcat/Km: 5800 M⁻¹ s⁻¹
